In the supplement of paper PMC10065799, “High-throughput profiling of sequence recognition by tyrosine kinases and SH2 domains using bacterial peptide display” (eLife, 2023):

How the values were obtained:
MERTK = MERTK (UniProt Q12866); assay: phosphorylation enrichment, bacterial display (enrichment ratio); higher = better substrate or ligand; peptides without Tyr show the background
Fer (mouse) = assay: as above
Jak2 = Jak2 (UniProt O60674); assay: as above
c-Src = assay: as above
c-Abl (mouse) = assay: as above
FGFR1 = FGFR1 (UniProt P11362); assay: as above
AncSZ = assay: as above
Fyn = Fyn (UniProt P06241); assay: as above
Fyn, sequence (P06241 whole entry, looked up): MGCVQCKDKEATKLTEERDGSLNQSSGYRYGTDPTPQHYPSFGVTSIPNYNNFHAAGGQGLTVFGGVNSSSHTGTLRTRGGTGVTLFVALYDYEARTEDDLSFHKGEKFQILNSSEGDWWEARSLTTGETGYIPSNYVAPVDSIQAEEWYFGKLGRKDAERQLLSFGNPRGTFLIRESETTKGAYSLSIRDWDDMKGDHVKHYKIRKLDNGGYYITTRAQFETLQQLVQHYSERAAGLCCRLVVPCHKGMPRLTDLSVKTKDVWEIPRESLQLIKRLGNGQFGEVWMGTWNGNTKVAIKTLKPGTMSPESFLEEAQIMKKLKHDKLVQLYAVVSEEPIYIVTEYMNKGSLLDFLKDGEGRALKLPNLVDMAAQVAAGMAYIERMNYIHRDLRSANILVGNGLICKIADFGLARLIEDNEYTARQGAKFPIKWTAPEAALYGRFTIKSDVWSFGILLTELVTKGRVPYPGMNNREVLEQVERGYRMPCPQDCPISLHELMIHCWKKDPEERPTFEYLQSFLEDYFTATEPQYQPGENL

FGFR3 = FGFR3 (UniProt P22607); assay: as above
EPHB2 = EPHB2 (UniProt P29323); assay: as above
EPHB2, sequence (P29323 whole entry, looked up): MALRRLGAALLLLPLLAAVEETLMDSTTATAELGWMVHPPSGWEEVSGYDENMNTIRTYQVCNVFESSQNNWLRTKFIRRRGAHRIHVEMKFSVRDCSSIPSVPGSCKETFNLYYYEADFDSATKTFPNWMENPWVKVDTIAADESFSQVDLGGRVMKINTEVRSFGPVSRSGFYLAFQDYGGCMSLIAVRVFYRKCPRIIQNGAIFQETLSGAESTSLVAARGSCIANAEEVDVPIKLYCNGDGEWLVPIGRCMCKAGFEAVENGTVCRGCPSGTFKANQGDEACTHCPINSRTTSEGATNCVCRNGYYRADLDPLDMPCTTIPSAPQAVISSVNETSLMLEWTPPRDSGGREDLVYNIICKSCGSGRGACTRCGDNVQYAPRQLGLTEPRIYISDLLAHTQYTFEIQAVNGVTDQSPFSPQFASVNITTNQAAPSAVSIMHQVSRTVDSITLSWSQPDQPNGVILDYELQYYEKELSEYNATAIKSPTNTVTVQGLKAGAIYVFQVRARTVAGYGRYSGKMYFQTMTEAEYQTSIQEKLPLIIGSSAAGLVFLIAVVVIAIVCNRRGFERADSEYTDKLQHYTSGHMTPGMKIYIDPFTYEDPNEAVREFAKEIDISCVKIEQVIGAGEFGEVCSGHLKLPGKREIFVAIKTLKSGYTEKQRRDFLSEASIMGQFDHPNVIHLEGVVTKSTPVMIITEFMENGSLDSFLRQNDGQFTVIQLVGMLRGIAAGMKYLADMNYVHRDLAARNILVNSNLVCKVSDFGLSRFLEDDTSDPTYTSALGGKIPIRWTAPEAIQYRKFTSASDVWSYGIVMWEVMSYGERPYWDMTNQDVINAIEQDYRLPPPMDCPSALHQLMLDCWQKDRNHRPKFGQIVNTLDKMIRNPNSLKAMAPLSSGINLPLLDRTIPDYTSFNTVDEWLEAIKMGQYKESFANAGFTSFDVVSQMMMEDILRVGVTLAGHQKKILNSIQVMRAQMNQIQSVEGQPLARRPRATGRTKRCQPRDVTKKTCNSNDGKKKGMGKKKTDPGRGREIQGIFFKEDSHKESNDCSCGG

EPHB1 = EPHB1 (UniProt P54762); assay: as above
EPHB1, sequence (P54762 whole entry, looked up): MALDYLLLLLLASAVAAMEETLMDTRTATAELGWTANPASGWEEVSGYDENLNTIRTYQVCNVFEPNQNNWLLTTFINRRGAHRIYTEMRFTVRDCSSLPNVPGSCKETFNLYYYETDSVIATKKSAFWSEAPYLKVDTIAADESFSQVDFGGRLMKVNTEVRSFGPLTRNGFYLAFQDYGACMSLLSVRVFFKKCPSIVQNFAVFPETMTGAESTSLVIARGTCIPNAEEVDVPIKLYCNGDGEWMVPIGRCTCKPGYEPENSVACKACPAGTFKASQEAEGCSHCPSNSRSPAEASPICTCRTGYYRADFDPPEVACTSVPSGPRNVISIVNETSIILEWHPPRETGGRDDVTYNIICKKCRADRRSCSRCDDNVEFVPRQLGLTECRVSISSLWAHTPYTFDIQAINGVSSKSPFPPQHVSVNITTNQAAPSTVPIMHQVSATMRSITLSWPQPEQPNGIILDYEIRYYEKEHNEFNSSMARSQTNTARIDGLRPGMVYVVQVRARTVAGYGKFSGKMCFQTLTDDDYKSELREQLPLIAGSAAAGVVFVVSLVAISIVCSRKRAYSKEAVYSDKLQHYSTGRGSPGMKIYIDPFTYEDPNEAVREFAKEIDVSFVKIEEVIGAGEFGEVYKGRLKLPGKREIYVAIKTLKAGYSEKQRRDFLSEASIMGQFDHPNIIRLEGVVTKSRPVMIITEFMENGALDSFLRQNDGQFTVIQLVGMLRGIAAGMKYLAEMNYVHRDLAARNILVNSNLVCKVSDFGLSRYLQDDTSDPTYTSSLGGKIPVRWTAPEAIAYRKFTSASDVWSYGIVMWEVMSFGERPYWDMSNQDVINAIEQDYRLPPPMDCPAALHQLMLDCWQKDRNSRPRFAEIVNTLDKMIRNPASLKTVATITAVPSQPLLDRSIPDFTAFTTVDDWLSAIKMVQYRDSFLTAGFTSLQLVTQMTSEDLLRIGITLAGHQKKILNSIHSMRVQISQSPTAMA

Fes = Fes (UniProt P07332); assay: as above
Fes, sequence (P07332 whole entry, looked up): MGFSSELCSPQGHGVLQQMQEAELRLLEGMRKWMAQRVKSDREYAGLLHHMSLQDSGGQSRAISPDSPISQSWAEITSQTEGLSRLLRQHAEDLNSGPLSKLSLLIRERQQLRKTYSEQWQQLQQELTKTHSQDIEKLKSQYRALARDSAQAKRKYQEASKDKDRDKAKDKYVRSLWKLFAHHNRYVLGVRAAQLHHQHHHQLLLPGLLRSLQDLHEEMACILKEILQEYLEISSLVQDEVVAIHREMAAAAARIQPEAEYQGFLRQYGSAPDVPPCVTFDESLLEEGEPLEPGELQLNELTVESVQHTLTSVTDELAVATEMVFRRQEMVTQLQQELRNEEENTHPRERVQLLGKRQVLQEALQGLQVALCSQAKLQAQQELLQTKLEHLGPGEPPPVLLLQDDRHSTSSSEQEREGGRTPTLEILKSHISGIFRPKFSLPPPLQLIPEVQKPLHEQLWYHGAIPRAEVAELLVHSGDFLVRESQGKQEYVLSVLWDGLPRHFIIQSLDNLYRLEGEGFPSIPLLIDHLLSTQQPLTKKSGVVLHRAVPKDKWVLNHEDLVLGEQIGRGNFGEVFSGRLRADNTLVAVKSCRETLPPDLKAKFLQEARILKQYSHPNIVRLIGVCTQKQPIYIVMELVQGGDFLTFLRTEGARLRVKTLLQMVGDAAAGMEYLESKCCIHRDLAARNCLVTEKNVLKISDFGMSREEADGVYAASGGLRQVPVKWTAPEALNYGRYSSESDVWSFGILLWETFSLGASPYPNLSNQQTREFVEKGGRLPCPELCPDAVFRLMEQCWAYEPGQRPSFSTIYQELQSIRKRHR

Hck = Hck (UniProt P08631); assay: as above
Hck, sequence (P08631 whole entry, looked up): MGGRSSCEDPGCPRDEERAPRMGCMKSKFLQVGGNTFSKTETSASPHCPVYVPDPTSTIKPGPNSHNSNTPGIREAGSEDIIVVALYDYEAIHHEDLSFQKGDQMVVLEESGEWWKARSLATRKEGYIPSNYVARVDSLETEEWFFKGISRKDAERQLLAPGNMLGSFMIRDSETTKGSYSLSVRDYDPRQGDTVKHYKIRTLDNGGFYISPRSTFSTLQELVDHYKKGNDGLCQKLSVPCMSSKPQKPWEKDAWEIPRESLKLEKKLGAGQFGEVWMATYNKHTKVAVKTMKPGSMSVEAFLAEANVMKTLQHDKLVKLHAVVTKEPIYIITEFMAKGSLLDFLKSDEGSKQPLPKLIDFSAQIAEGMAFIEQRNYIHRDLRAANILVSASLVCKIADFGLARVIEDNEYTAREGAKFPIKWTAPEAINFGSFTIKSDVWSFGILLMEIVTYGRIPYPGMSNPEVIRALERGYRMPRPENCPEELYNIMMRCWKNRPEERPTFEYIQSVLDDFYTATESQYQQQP

c-Src SH2 = assay: SH2 binding enrichment of the phosphorylated peptide, bacterial display (enrichment ratio); higher = better substrate or ligand; peptides without Tyr show the background
SHP2-C SH2 = assay: as above
Grb2 SH2 = Grb2 SH2 (UniProt P62993); assay: as above
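Wherever SH2 binding enrichment of the phosphorylated peptide, bacterial display is given: peptide library displayed on the E. coli surface as eCPX fusions, selected cells deep-sequenced, score is each peptide's frequency after selection divided by its frequency in the input.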
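Wherever phosphorylation enrichment, bacterial display is given: 11-residue human phosphosite peptides and single-mutation variants displayed on the E. coli surface, counted by deep sequencing, each peptide's frequency after selection divided by its frequency in the unselected input library; frequency after pTyr selection over input frequency; kinase dosed for 20-30% of maximal phosphorylation in three min.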

MERTK, sequence (Q12866 whole entry, looked up): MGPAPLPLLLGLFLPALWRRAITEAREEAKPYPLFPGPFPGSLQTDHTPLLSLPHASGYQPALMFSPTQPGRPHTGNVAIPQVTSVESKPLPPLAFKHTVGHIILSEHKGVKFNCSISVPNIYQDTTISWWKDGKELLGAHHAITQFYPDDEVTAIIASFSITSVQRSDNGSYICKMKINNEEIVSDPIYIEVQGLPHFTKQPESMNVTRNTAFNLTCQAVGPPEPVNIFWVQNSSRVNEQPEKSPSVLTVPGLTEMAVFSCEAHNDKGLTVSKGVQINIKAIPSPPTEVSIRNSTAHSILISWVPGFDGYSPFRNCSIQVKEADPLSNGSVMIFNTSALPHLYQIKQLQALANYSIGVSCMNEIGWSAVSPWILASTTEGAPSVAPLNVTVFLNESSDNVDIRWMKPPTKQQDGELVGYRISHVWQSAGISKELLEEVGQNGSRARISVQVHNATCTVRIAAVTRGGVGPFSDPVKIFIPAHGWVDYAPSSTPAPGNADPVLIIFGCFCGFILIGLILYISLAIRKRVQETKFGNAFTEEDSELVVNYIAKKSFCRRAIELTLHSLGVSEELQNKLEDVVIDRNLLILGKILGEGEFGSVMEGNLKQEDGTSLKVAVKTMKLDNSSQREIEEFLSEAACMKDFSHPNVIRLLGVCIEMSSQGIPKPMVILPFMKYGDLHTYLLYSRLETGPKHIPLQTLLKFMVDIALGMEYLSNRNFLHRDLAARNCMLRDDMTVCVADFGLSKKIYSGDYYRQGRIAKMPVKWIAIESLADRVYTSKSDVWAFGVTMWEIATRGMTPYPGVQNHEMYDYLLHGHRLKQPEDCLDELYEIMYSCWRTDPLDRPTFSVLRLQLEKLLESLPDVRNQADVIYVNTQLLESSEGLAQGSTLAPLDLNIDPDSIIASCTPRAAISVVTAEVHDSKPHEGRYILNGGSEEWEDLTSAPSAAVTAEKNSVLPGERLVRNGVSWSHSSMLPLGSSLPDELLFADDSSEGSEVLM

| Sequence | SH2 binding enrichment (c-Src SH2) | SH2 binding enrichment (SHP2-C SH2) | SH2 binding enrichment (Grb2 SH2) | phosphorylation enrichment (MERTK) | phosphorylation enrichment (Fer (mouse)) | phosphorylation enrichment (Jak2) | phosphorylation enrichment (c-Src) | phosphorylation enrichment (c-Abl (mouse)) | phosphorylation enrichment (FGFR1) | phosphorylation enrichment (AncSZ) | phosphorylation enrichment (Fyn) | phosphorylation enrichment (FGFR3) | phosphorylation enrichment (EPHB2) | phosphorylation enrichment (EPHB1) | phosphorylation enrichment (Fes) | phosphorylation enrichment (Hck) |
| --- | --- | --- | --- | --- | --- | --- | --- | --- | --- | --- | --- | --- | --- | --- | --- | --- |
| LWKWRYEELKE [CCDC102B_Y299_K298R] | 2.08 | 1.36 | 1.29 | 0.909 | 0.771 | 2.73 | 0.715 | 1.7 | 0.503 | 1.34 | 0.629 | 1.02 | 1.09 | 1.28 | 2.5 | 0.561 |
| MARDIYQASYY [LTK_Y672_R673Q] | 0.919 | 1.03 | 1.12 | 5.18 | 1.97 | 0.78 | 6.26 | 3.09 | 1.41 | 1.04 | 5.45 | 1.19 | 3.03 | 2.55 | 0.879 | 6.75 |
| MENFIYESMRY [CYP19A1_Y361] | 0.627 | 0.553 | 0.819 | 2.31 | 13.1 | 0.839 | 6.18 | 1.25 | 0.569 | 1.23 | 8.43 | 0.728 | 3.32 | 5.46 | 3.6 | 6.76 |
| MFDKEYFSVHN [MET_Y1234_YF] | 0.548 | 0.713 | 0.746 | 0.393 | 0.451 | 1.46 | 0.632 | 0.782 | 1.84 | 1.31 | 0.488 | 1.31 | 0.566 | 0.605 | 1.03 | 0.513 |
| MFVKSYTIHFS [F5_Y2153_YF] | 0.494 | 0.753 | 0.742 | 0.456 | 0.464 | 1.05 | 0.48 | 0.851 | 0.49 | 1 | 0.482 | 0.736 | 0.579 | 0.565 | 1.19 | 0.495 |
| MGGSLYFSYPD [HIKESHI_Y55_V54L] | 0.656 | 0.605 | 0.77 | 7.06 | 0.802 | 2.11 | 4.41 | 1.16 | 3.4 | 1.49 | 3.46 | 3.12 | 5.75 | 4.44 | 1.26 | 3.45 |
| MIAIRYSHSRR [ACOXL_Y260_T255M] | 0.56 | 0.652 | 0.959 | 0.353 | 0.324 | 0.434 | 0.426 | 0.473 | 0.377 | 0.875 | 0.444 | 0.518 | 0.465 | 0.539 | 0.487 | 0.43 |
| MILSAYALGGL [CPS1_Y590_R587L] | 0.708 | 0.794 | 0.835 | 0.436 | 0.552 | 0.928 | 0.584 | 0.736 | 0.431 | 0.894 | 0.458 | 0.675 | 0.562 | 0.655 | 1 | 0.497 |
| MKDLTYSSLCF [ALOX5_Y446_A447S] | 0.555 | 0.617 | 0.756 | 4.91 | 3.84 | 1.21 | 5.91 | 1.53 | 0.997 | 1.48 | 6.62 | 1.14 | 2.67 | 2.89 | 1.35 | 6.78 |
| MLNTNYHLPPS [MT-ATP8_Y33] | 0.515 | 0.67 | 1 | 0.757 | 0.327 | 0.502 | 0.354 | 0.556 | 3.4 | 0.705 | 0.384 | 2.43 | 0.514 | 0.617 | 0.526 | 0.297 |
| MSSLFYANALF [HOXB7_Y6_T9A_YF] | 0.693 | 0.64 | 1.25 | 1.29 | 1.78 | 1.24 | 0.975 | 0.696 | 0.58 | 0.975 | 0.762 | 0.743 | 0.755 | 0.764 | 1.21 | 0.705 |
| MTKEQYIKMNR [ARFGEF2_Y797] | 0.454 | 0.672 | 0.823 | 0.348 | 0.346 | 0.563 | 0.369 | 0.335 | 0.458 | 0.595 | 0.397 | 0.445 | 0.357 | 0.365 | 0.558 | 0.407 |
| NARGLYFKLHN [GATA2_Y376_C373R_YF] | 0.624 | 0.88 | 0.988 | 0.476 | 0.657 | 1.67 | 0.542 | 0.896 | 0.554 | 1.51 | 0.487 | 0.87 | 0.634 | 0.622 | 1.34 | 0.53 |
| NFRNTYVNANE [KCNH2_Y475_T473N] | 2.64 | 1.55 | 29.8 | 0.404 | 0.358 | 0.577 | 0.424 | 0.467 | 0.434 | 0.559 | 0.404 | 0.474 | 0.395 | 0.373 | 0.677 | 0.466 |
| NIISFYLSRDP [CTSD_Y232_F229I] | 1.11 | 1.41 | 1.59 | 0.36 | 0.43 | 0.958 | 0.346 | 0.655 | 0.516 | 1.18 | 0.446 | 0.773 | 0.498 | 0.529 | 1.27 | 0.451 |
| NKFVAYIESQG [KDM4B_Y34_YF] | 0.565 | 0.801 | 0.968 | 0.459 | 0.481 | 0.836 | 0.452 | 0.611 | 0.491 | 0.899 | 0.49 | 0.663 | 0.553 | 0.526 | 1.12 | 0.494 |
| NKYVAYIESQG [KDM4B_Y34] | 0.676 | 1.51 | 0.755 | 0.449 | 0.422 | 0.827 | 0.437 | 0.692 | 0.567 | 0.893 | 0.407 | 0.625 | 0.472 | 0.554 | 0.885 | 0.413 |
| NLMPAYHKCIQ [CYP21A2_Y190_Y191H] | 0.65 | 0.5 | 0.878 | 0.518 | 0.507 | 0.969 | 0.501 | 0.71 | 0.493 | 0.91 | 0.519 | 0.707 | 0.586 | 0.501 | 1.01 | 0.521 |

Now from value to sequence, other results behind:

| SH2 binding enrichment (c-Src SH2) | SH2 binding enrichment (SHP2-C SH2) | SH2 binding enrichment (Grb2 SH2) | Sequence | phosphorylation enrichment (MERTK) | phosphorylation enrichment (Fer (mouse)) | phosphorylation enrichment (Jak2) | phosphorylation enrichment (c-Src) | phosphorylation enrichment (c-Abl (mouse)) | phosphorylation enrichment (FGFR1) | phosphorylation enrichment (AncSZ) | phosphorylation enrichment (Fyn) | phosphorylation enrichment (FGFR3) | phosphorylation enrichment (EPHB2) | phosphorylation enrichment (EPHB1) | phosphorylation enrichment (Fes) | phosphorylation enrichment (Hck) |
| --- | --- | --- | --- | --- | --- | --- | --- | --- | --- | --- | --- | --- | --- | --- | --- | --- |
| 0.54 | 1.48 | 1.09 | LWQSIYNLEAE [TNNT2_Y251] | 0.664 | 0.544 | 0.921 | 6.57 | 0.881 | 0.66 | 1.33 | 12.4 | 1.05 | 0.791 | 0.793 | 1.45 | 7.01 |
| 0.974 | 0.635 | 1.08 | MAFDRYVAICA [OR52J3_Y125_V128I] | 0.386 | 0.562 | 0.726 | 0.394 | 0.362 | 0.586 | 0.939 | 0.454 | 0.708 | 0.659 | 1.12 | 0.808 | 0.555 |
| 2.84 | 1.92 | 0.921 | MGSYNYLGFPR [SPTLC2_Y178_A182P] | 6.35 | 0.59 | 3.81 | 0.735 | 1.04 | 2.29 | 0.806 | 0.511 | 1.48 | 2.77 | 5.53 | 0.748 | 1.39 |
| 0.572 | 0.609 | 0.86 | MHDSNCVSKGS [PDGFRA_Y849_Y849C] | 0.384 | 0.388 | 0.683 | 0.414 | 0.559 | 0.456 | 0.57 | 0.387 | 0.485 | 0.367 | 0.396 | 0.72 | 0.456 |
| 0.543 | 0.545 | 0.831 | MKALGYFAVGT [OPA1_Y498_V502G] | 0.355 | 0.395 | 1.92 | 0.487 | 0.7 | 0.479 | 0.798 | 0.432 | 0.64 | 0.486 | 0.469 | 0.973 | 0.489 |
| 0.351 | 0.464 | 0.712 | MKGEFYRFLAE [YWHAG_Y131_D129E_YF] | 0.372 | 0.4 | 0.907 | 0.382 | 0.627 | 0.336 | 0.77 | 0.392 | 0.529 | 0.455 | 0.426 | 0.902 | 0.414 |
| 1.08 | 1.69 | 1.01 | MKVPLYETPAG [PGM5_Y358_V357L] | 9.79 | 16.7 | 0.767 | 1.81 | 11.2 | 0.52 | 1.64 | 1.82 | 0.632 | 27.8 | 19.4 | 1.06 | 6.03 |
| 0.381 | 0.55 | 0.697 | MRNDLYQTPLH [NFKB1_Y582] | 2.62 | 4.12 | 0.693 | 1.94 | 5.88 | 0.454 | 1.69 | 1.8 | 0.57 | 2.44 | 1.19 | 0.845 | 4.21 |
| 0.516 | 0.659 | 0.835 | MSRDVYSTDFF [NTRK2_Y702_YF] | 5.05 | 0.486 | 0.728 | 2.73 | 0.568 | 1.06 | 0.691 | 2.65 | 0.718 | 0.774 | 0.756 | 0.732 | 1.28 |
| 0.541 | 0.893 | 0.969 | NGLVACKDGKL [PMM2_Y76_Y76C] | 0.367 | 0.419 | 0.435 | 0.387 | 0.401 | 0.392 | 0.486 | 0.416 | 0.484 | 0.524 | 0.397 | 0.43 | 0.401 |
| 0.436 | 0.669 | 0.917 | NGLVAYKDGKL [PMM2_Y76] | 0.429 | 0.457 | 0.528 | 0.423 | 0.427 | 0.431 | 0.602 | 0.305 | 0.448 | 0.403 | 0.341 | 0.612 | 0.372 |
| 0.974 | 0.825 | 0.967 | NHFKIYNLCAE [PTEN_Y68_YF] | 0.584 | 0.535 | 0.577 | 3.12 | 0.52 | 0.676 | 0.882 | 2.61 | 0.647 | 0.516 | 0.412 | 0.766 | 1.12 |
| 4.5 | 1.92 | 0.655 | NLAAQYTTVGR [SGSH_Y240_D235N] | 0.438 | 0.36 | 0.414 | 0.494 | 0.416 | 0.376 | 0.444 | 0.401 | 0.375 | 0.312 | 0.304 | 0.489 | 0.568 |
| 0.518 | 0.479 | 0.707 | NNKKDYFDMFE [SLC26A3_Y526_K521N_YF] | 0.46 | 0.485 | 0.991 | 0.488 | 0.723 | 5.31 | 1.08 | 0.415 | 3.74 | 0.791 | 1.12 | 1.16 | 0.504 |
| 5 | 0.963 | 0.924 | NQDRTYYESVR [SPEN_Y632] | 1.02 | 0.993 | 0.762 | 2 | 0.787 | 1.02 | 0.897 | 1.4 | 0.828 | 0.661 | 0.569 | 0.819 | 2.05 |
